First the molecules themselves.
T1: αBExt C-terminal peptide, second binding (Homo sapiens, not fully specified; dimer with one αBExt peptide already bound)
T1 chain: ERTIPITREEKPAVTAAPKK

T2: αBPal C-terminal peptide, second binding (Homo sapiens, not fully specified)
T2 chain: ERTIPITRE

T3: αBExt C-terminal peptide, first binding (Homo sapiens)
T3 chain: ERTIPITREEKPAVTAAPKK

T4: αBPal C-terminal peptide, first binding (Homo sapiens)
T4 chain: ERTIPITRE

B1: αB-crystallin core domain (αBDom) dimer 68-153 (protein)
chain: MRLEKDRFSVNLDVKHFSPEELKVKVLGDVIEVHGKHEERQDEHGFISREFHRKYRIPADVDPLTITSSLSSDGVLTVNGPRKQVS
B2: αB-crystallin core domain (αBDom) 68-153 (protein)
chain: B1 chain
modifications: both subunits bound to αBExt peptide
B3: αB-crystallin core domain (αBDom) 68-153 (protein)
chain: B1 chain
modifications: both subunits bound to αBPal peptide
B4: αB-crystallin core domain (αBDom) 68-153 (protein)
chain: B1 chain

Where no end group is shown, it is not given here.

What all share (assay): ion-mobility native mass spectrometry titration
The target in series [1] is T1, αBExt C-terminal peptide, second binding.
In series [2] the target is T2, αBPal C-terminal peptide, second binding.
Series [3] has as its target B4.
The target of series [4] is T3, αBExt C-terminal peptide, first binding.
Series [5] concerns the molecule itself.
In series [6] the target is T4, αBPal C-terminal peptide, first binding.

One may read the Kd as the concentration at which binding is half-saturated. A low value points to a tighter complex.

Consider B1, for which the figures for the Kd in series [1] and in series [2] were 300 µM and 150 µM, respectively. In series [3], B2 returned a dissociation constant Kd of 6 µM.

As for B3, in series [3], the dissociation constant (Kd) is 4 µM. For B4, the figures for the Kd in series [4], in series [5] and in series [6] were approximately 70 µM, approximately 2 µM and approximately 70 µM, respectively.

(Values after publication PMC3638394 (2013).)
